In the supplement of paper PMC12042874:
± gives the uncertainty stated by the source.

assay: amyloid nucleation score (Sup35N fusion, yeast selection) (log enrichment); library NNK2; higher = more nucleation; inactive = no reads after selection
In short: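 Yeast lacking psi expressed peptides of 20 random codons fused to Sup35N, received 100 μM copper sulfate for 24 hours, and were then grown for 7 days at 30°C on medium lacking adenine and uracil. Illumina sequencing of input and output plasmid inserts provided the reads. Nucleation scores are DiMSum log enrichments of output over input, centred on the mode of non-aggregating sequences. Any sequence with under 100 input reads was excluded.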

Row | Substance | amyloid nucleation score
1 | ANAKIYGNMEALETGMRL | 0.553 ± 0.57
2 | FSLQQVNFMTVSRGKCSLKL | inactive
3 | VNLITGIMYI | inactive
4 | YALWIVMLVP | -0.104 ± 0.49
5 | PSYRCK | inactive
6 | TFAVFSYLRFIATNSGNIKA | -0.606 ± 0.48
7 | AISSRLILLTPRAKSFVPSD | -0.247 ± 0.65
8 | GHSGTVSTQRVCPSSSLWYR | 0.462 ± 0.4
9 | QWTLVL | -0.599 ± 0.55
10 | WSFVGSTLSRDGSHNQDVHW | 3.58 ± 0.098
11 | CYHSQNDCHKVTWCFPYLAH | -0.449 ± 0.44
12 | TLFCIVMYCTKVETNFLVLH | 6.45 ± 0.085
13 | TYKAAICLGCS | 6.548 ± 0.033
14 | SWSAIEPQVPKYYYSL | -0.623 ± 0.79
15 | FVYVVEGVWEKGIKFFMIFK | -0.913 ± 1.1
16 | YTSSCILGRTFPVLKCNIDY | -1.33 ± 0.76
17 | LSCRWHCIVTLDVAAYNEPE | 5.765 ± 0.044
18 | GVLGLAFDC | 0.662 ± 0.81
19 | SRNNCRCD | -1.17 ± 1.1
20 | NKLYFVGKWNGFVSSVCSLV | -0.942 ± 0.41
21 | LLFSLYDYRQIDFNSGHRHV | 4.37 ± 0.056
22 | SGILREPVMIQVSVLQEQHW | 5.025 ± 0.045
23 | QKRPVDIVPDHVWLWTR | 0.114 ± 0.55
24 | WGESHWVASFFKFVRGSWDG | -0.112 ± 0.54
25 | VDQRRVHLDERDY | -0.371 ± 0.63

Row | Substance | amyloid nucleation score
26 | HIVAGCIVQLANILWDRAEG | 0.57 ± 0.38
27 | VVDCMCSGLHWVQVGILSQP | 1.19 ± 0.39
28 | ISIAGCFNTKILWMFEQ | 6.32 ± 0.087
29 | ISDATLGFGLIHVGMDVWGC | 5.76 ± 0.061
30 | HSVLMAGSPTILRHRYRFKG | -0.723 ± 0.44
31 | GDSIDARGRVQAPQSKEGLR | 1.12 ± 0.42
32 | LIYWCHAFVKT | -1.27 ± 0.53
33 | YMTTNRKPLDFYQHVYLMKV | inactive
34 | IVSKDRQNFVRCKDSRDHDV | -0.002 ± 0.39
35 | TGTAVG | 3.23 ± 0.073
36 | EMYVNFMHVDGDGVPQHDAW | 0.929 ± 0.37
37 | MKLFISNHTLWSIGKGDGVT | inactive
38 | RVVVTEKKLPCLGQGTIVPT | 0.03 ± 0.35
39 | YTKFANSHFIGLNRSCWSNE | -0.238 ± 0.8
40 | ADPVNRKFLHSWDF | 0.112 ± 0.29
41 | MVSLIPEMHFNVMLEKVACA | 0.562 ± 0.81
42 | GIFCSVGMLTVCLLVRDKLV | inactive
43 | YANDELLGAGGADS | 0.652 ± 0.35
44 | MNKCIWGIYYR | -1.6 ± 1.1
45 | SHVCYSRNIH | 1.06 ± 0.26
46 | KGPTSLLYLVMCFMVLQQLR | -0.447 ± 0.78
47 | IVDTRGVPIWREISSIRVDL | -0.669 ± 0.74
48 | LTYLTWFLSMDQGMLNWLHV | 0.973 ± 0.35
49 | DYGNLYL | -0.291 ± 1.1
50 | NFYVVDQCSYRSGRLNIKWL | 4.13 ± 0.079

Row | Substance | amyloid nucleation score
51 | IGLTALDFMSAFGVHLYGCG | 0.215 ± 0.76
52 | VGRGMHTSYFVGTHTWLSVC | 4.83 ± 0.11
53 | SLTVTDIKLGHGRV | 6.2 ± 0.04
54 | QLHLTEVLFQS | 0.154 ± 0.22
55 | NLSLAFALMTSVVNHNMWSG | 5.661 ± 0.044
56 | LTRGTFRIQCTLTSAWRVAR | 4.62 ± 0.11
57 | QYLVRYLYAITLK | -0.603 ± 1
58 | YQRNSFNDHADYPYHELVKS | 0.222 ± 0.64
59 | QCVTSCCSSHEWHSTRQMIF | -0.502 ± 0.46
60 | HACGIVHRPLLRD | -0.191 ± 0.33
61 | YMHSICLFIVDNKIDYLRGY | 0.541 ± 0.74
62 | HYYPLVAIR | 0.389 ± 0.49
63 | WHSVHYNLFCCF | 8.689 ± 0.041
64 | GGTGVAV | 0.183 ± 0.34
65 | VRGSNV | -0.637 ± 0.33
66 | QYSFKVDKTCRSVH | 0.147 ± 0.76
67 | YSGDNVNVVKQRPSCFLISR | -0.24 ± 0.74
68 | WLIMT | inactive
69 | QRHAVWGSSGDLTYELIGSL | inactive
70 | GGSSRQTHW | -0.375 ± 1.1
71 | PTCMLCA | 0.868 ± 0.44
72 | WESCWIHLFHLSIHLTTNFY | 2.08 ± 0.088
73 | ACANGDADVEWLSDFCEKDE | 1.02 ± 0.35
74 | LNIYF | 3.13 ± 0.11
75 | VGIYDYVLRSC | 0.115 ± 0.33

Row | Substance | amyloid nucleation score
76 | STICFG | -0.541 ± 1
77 | CERLDCSQKDSGCYWRRHGI | 0.471 ± 0.62
78 | HSFEFWIDTRWLVFINPYSR | -0.846 ± 0.44
79 | ITHMLLTGIPTQLSRV | -0.621 ± 0.74
80 | SLKPSLLSDKNE | -1.39 ± 0.36
81 | ISRQDRVQWWSYSSTRLA | 4.94 ± 0.077
82 | VTGYGSLYYGVKTRG | -0.295 ± 0.55
83 | DVKIVYSKTDRWRMGRSPES | 1.55 ± 0.2
84 | IHESSSF | -0.47 ± 1.1
85 | RAMLNLKE | 2.46 ± 0.053
86 | LDSLCG | 0.546 ± 0.57
87 | FRLRVRTVRQNCLYHWGSVE | 0.024 ± 0.56
88 | YVRFEVLRWLLYRYTMVSQD | 0.661 ± 0.49
89 | FSCMLNSNFH | inactive
90 | NLNMVTWVRQTHI | -0.726 ± 0.32
91 | NSVWANARRLTVCGAERGGT | 1.24 ± 0.17
92 | GVHTLWNRMKWPIENRVYGS | 1.59 ± 0.3
93 | GSRAFALSTCCFMKYGSGMG | 8.075 ± 0.078
94 | FFAKCELVSWDFDKSLGSSM | -0.437 ± 0.34
95 | RGSSLCYLRKGGFGWQGVVG | 0.733 ± 0.56
96 | GSPNLVSV | 0.401 ± 0.56
97 | LAWGNHRVLRWSAPHNIRSR | 0.93 ± 0.33
98 | AQLVGVCFRRFCQLSTSLCY | -1.18 ± 0.64
99 | ALECGRTMEINLTGR | 0.942 ± 0.37
100 | FSLSQ | 3.55 ± 0.11

Row | Substance | amyloid nucleation score
101 | TNLQSVRYVAHTF | 3.96 ± 0.068
102 | AFRPVSSIGLCRWYMKRWNS | 0.542 ± 0.19
103 | TYSGLKNARWEFWMKSFDYF | -1.12 ± 0.5
104 | SNSGMTVKCNYVYSFVTGKS | 0.816 ± 0.21
105 | KGFIIFSFSSAIR | 2.46 ± 0.1
106 | MLTFSTNDFVRFVMHVAQWD | 2.1 ± 0.22
107 | TLGNKFLKSWYMGASKTMCV | -1.78 ± 0.75
108 | PSDSECISCSCLDRWYRVFE | 2.94 ± 0.12
109 | LYYAQSANRRLSGAWRFLF | -0.281 ± 0.79
110 | RLCLYN | -1.2 ± 0.38
111 | DYLKRDVSTFSLS | -0.021 ± 0.29
112 | WRGGGLQLVQCDYRTLDNTQ | -0.409 ± 0.37
113 | SKIGHD | 0.545 ± 0.57
114 | RAFIINWALFGTRH | inactive
115 | SRHYYRFHTFAVVGWLSLYW | -0.849 ± 1.1
116 | QPISVMSNLSEIIWTYSMRA | -0.002 ± 0.63
117 | TFLVLLRVMVWVV | 0.648 ± 0.6
118 | TGLVFVLMCKSCQWFFREML | -0.948 ± 0.42
119 | CAVRF | 0.498 ± 0.64
120 | TDKKACNLNDANVS | -0.014 ± 0.76
121 | YWGNYLRSFIYVVTSWSHVF | inactive
122 | CSIPFSVWDCLSWYCKNIRI | -1.46 ± 0.62
123 | ITSSEVGHWYRVTEKCHIRM | 1.2 ± 0.3
124 | SFCSTGTEDTT | -0.213 ± 0.26
125 | ILTTCMNAKKLNLFGYGL | -0.291 ± 0.63

Row | Substance | amyloid nucleation score
126 | SVVAVFLKYCVVADSATGV | 0.001 ± 0.76
127 | GHVAWSNDSWERESFF | -0.989 ± 0.76
128 | IGWTFIHVPCSAQRFVAIVS | 0.827 ± 0.51
129 | ANDPCGVKASRLYVLVSPRV | 0.707 ± 0.19
130 | QLQVSYYQRSGMFERFRLEW | 2.46 ± 0.18
131 | KNTYKQACWQAELHKGLLVG | 0.748 ± 0.17
132 | RYGLLYSTSLACWFGS | 4.36 ± 0.058
133 | IRLDTKDGCRYN | inactive
134 | IRRWFRLNNGRM | -0.113 ± 0.79
135 | VLDINIFMISYCFHMHYDQV | 5.49 ± 0.091
136 | TPDLSLLFIIRRCIFSGTPY | inactive
137 | WSDGLSPVKLVRLS | 3.91 ± 0.094
138 | SVRKRKSNNAIPANAPNKI | 0.513 ± 0.35
139 | VSDLRRMKDGC | inactive
140 | LLAKSLDTGILD | 6.487 ± 0.025
141 | LNLIHR | 0.153 ± 0.79
142 | SLLGV | -1.3 ± 0.34
143 | RSSASRNQFKESCFRAHQFP | -0.339 ± 0.27
144 | VFDGVSSGTCHLCAAWSWDG | 1.56 ± 0.14
145 | NTLNVWACVGLLLQ | 6.48 ± 0.075
146 | GKTISNFLGMTTSCEFGR | -0.81 ± 1
147 | AFDIFFNVVWRPFVHSCLAR | 0.041 ± 0.56
148 | STYNCFTGADRSLL | 0.94 ± 0.67
149 | ASCWTVGQLTHVSVSMWGFI | 0.943 ± 0.53
150 | FDLSREV | -0.544 ± 0.29

Row | Substance | amyloid nucleation score
151 | SFDLWLCTRRWLGGAWILL | -0.029 ± 0.65
152 | YSVQRCGYQDSKNNDVFLA | -0.043 ± 0.5
153 | NKRHSGRFSVLQISA | 0.957 ± 0.15
154 | WIMVI | -0.124 ± 0.26
155 | LRLLQVVGVCCSGTWVDGCW | 6.074 ± 0.04
156 | NVVTG | -0.11 ± 0.42
157 | FSWFFSNITITMNHCLGVSR | inactive
158 | LMGLFREFFRYILFGCINQF | -0.419 ± 0.27
159 | LHLRNVMVQ | -0.681 ± 0.31
160 | GLSIGYSKWETALGITLSNP | -0.864 ± 0.78
161 | NEHCVNAGSRWMDGCVSCWY | 3.58 ± 0.082
162 | MFCIWRE | 0.907 ± 0.2
163 | LMRRHRA | 0.954 ± 0.25
164 | AASWHPAYCIYGPGGRDKVG | 2.49 ± 0.12
165 | CVKKEIMLFAFDALKSLLGR | -0.742 ± 1.1
166 | IDYQSGMPWVSMRMILKQ | 0.158 ± 0.46
167 | LSQGLIKRMYQHMCMKCVGF | -0.08 ± 0.35
168 | DAYQEKCLCFVHRCYAQGRC | 0.163 ± 0.39
169 | NVNGLLSTN | -0.172 ± 0.76
170 | VQICLGNPNWGNPANRSFVV | 1.95 ± 0.2
171 | NVFVLFVHRVVGQELAELLG | 4.58 ± 0.065
172 | SCVYLDCLF | 0.25 ± 0.6
173 | VSVLI | 0.45 ± 0.44
174 | SLEGYKLDAQRRFKMVCEMV | -0.267 ± 0.33
175 | PCGSCPRLQQIVSRDGDDAG | 2.71 ± 0.21
